Measurements as given in PMC4877808.

B1: haptoglobin (free-Hp) (ligand)
chain 1: VETGSEATADSCPKAPEIANSHVEYSVRYQCDKYYKLHAGNGVYTFNNKQWINKDIGQQLPECEEDDSCPEPPKIENGYVEYLVRYQCKPYYTLRTCGDGVYTFNSKKQWINKNIGQKLPECEAVCGKPKHPVDQVQ
chain 2: IIGGSLDAKGSFPWQAKMVSQHNLISGATLINERWLLTTAKNLYLGHSSDKKAKDITPTLRLYVGKNQLVEVEKVVLHPDHSKVDIGLIKLRQKVPVNDKVMPICLPSKDYVKVGRVGYVSGWGRNENFNFTEHLKYVMLPVADQDKCVKHYEGVDAPKNKTAKSPVGVQPILNENTFCVGLSKYQDDTCYGDAGSAFVVHDKEDDTWYAAGILSFDKSCAVAEYGVYVKVTSILDWVRKTIANN

Assays:
[1] = target: His-tagged recombinant TcHpHbR (T. congolense haptoglobin-hemoglobin complex receptor, without the signal sequence) (Trypanosoma congolense IL3000); assay: SPR; quantitative: Biacore X, His-tagged receptor immobilised on CM5 (rTcHpHbR 800 RU, rTbHpHbR 480 RU), 30 μl/min, free-Hb and free-Hp 0.0001-10 μM; Kd = dissociation rate constant / association rate constant
[2] = target: His-tagged recombinant TbHpHbR (T. brucei haptoglobin-hemoglobin complex receptor, without the signal sequence) (Trypanosoma brucei brucei GUTat 3.1); assay: as above

| Molecule | Kd [1] [nM] | Kd [2] [nM] |
| --- | --- | --- |
| bovine hemoglobin (free-Hb), from bovine erythrocytes (from UniProt P01966 1-142; P02070 1-145) (ligand) | 20.5 | 5300 |
| B1 | 220 | 1800 |
